Like-named read-outs stand apart in the source and are kept apart here.
T1: hCD30L (human, UniProt P32971 63-234)
T1 sequence (looked up): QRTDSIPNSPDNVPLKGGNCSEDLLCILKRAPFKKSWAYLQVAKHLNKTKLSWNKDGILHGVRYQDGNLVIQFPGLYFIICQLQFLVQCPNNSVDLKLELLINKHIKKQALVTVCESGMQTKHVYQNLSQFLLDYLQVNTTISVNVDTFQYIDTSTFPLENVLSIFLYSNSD

T2: human Receptor Activator for Nuclear Factor kappa B Ligand (human, UniProt O14788 143-317, limits assumed)
T2 construct: also called hRANKL; RANKL
T2 sequence (looked up): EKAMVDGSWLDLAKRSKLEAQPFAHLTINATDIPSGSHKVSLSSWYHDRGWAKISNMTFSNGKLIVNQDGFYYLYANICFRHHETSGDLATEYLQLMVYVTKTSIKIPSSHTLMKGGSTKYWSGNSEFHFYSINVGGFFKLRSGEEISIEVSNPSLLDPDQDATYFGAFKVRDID

T3: hCD40L (human, UniProt P29965 113-261)
T3 sequence (looked up): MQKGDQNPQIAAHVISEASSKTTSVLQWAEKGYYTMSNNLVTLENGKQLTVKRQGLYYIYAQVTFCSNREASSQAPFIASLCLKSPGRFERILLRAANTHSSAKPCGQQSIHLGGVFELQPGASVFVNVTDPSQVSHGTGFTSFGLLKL

T4: biotinylated hOX40L (R&D Systems, biotinylated in house) (human, UniProt P23510 51-183, biotinylated with Sulfo-NHS-LC-Biotin, sites not stated)
T4 construct: same bought protein as m10, biotinylated; also called biotinylated OX40L
T4 sequence: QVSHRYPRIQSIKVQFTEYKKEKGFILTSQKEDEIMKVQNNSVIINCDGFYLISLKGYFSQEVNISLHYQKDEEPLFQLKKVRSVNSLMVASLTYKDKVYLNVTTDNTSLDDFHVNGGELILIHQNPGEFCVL

T5: recombinant human OX40L (extracellular domain, R&D Systems) (human, UniProt P23510 51-183)
T5 sequence: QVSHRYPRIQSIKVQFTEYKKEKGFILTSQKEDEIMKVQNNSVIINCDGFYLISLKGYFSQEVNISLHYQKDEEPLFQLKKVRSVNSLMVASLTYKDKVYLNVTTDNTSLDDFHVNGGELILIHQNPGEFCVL


Assays:
[1] = target: T1, hCD30L; experiment: competition ELISA on neutravidin captured biotinylated hOX40L
Method: (§1) The binding of OX40L blocking Nanobodies to other TNF family members was tested in a competition ELISA.
(§2) Detection was done using sTMB (SDT Reagents, Baesweiler, Germany), the reaction was stopped with 1M HCl and absorbance was determined at 450 nm.

[2] = target: T2, human Receptor Activator for Nuclear …; experiment: as above
Method: as §1, §2

[3] = target: T6, human tumor necrosis factor-related apoptosis inducing ligand (human, UniProt P50591 114-281); experiment: as above
T6 construct: also called hTRAIL; TRAIL
T6 sequence (P50591 114-281 limits assumed): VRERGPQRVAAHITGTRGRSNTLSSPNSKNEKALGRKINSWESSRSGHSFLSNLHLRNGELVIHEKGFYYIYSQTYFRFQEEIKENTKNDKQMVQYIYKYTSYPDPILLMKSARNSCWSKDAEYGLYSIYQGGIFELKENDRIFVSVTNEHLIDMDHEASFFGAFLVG
Method: as §1, §2

[4] = target: T7, hTNF-alpha (human, UniProt P01375 77-233); experiment: as above
T7 sequence (P01375 77-233 limits assumed): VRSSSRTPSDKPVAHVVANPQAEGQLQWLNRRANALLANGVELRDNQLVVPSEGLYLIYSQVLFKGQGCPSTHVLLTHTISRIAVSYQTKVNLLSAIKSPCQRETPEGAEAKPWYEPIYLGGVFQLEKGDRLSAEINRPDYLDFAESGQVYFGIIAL
Method: as §1, §2

[5] = target: T3, hCD40L; experiment: as above
Method: as §1, §2

[6] = target: T4, biotinylated hOX40L (R&D Systems, …); experiment: hOX40L/hOX40 AlphaScreen, native sample
Method: (§3) Next, streptavidin donor beads were added and incubated for an additional 1 hour. Fluorescence was measured by reading plates on the EnVision Multilabel Plate Reader using an excitation wavelength of 680 nm and an emission wavelength of 520 nm.
(§4) In the TSA assay, Nanobodies were diluted to a concentration of 0.2 mg/ml and melting temperature (Tm) was determined at different pH by stepwise increase in temperature in presence of Sypro Orange, a dye that binds to […] residues that become exposed upon unfolding of the protein, using the Lightcycler (Roche) for detection. […] In SEC analysis, the Nanobodies were analyzed on a Phenomenex matrix to allow detection of multimers, aggregates or ‘stickyness’.

[7] = target: T4, biotinylated hOX40L (R&D Systems, …); experiment: hOX40L/hOX40 AlphaScreen, assay 2, heated at Tm+10 C
[8] = target: T4, biotinylated hOX40L (R&D Systems, …); experiment: hOX40L/hOX40 AlphaScreen, assay 2, native
Method: as §3, §4

[9] = target: T5, recombinant human OX40L (extracellular …); experiment: cell-based or functional assay
[10] = target: T4, biotinylated hOX40L (R&D Systems, …); experiment: hOX40L/hOX40 AlphaScreen, assay 3, native
Method: as §3, §4

[11] = target: T5, recombinant human OX40L (extracellular …); experiment: cell-based or functional assay; remark: listed apart in the source
[12] = target: T1, hCD30L; experiment: competition ELISA: fixed concentration of OX40L01E07 pre-incubated with a concentration series of the competitor, then added to biotinylated hOX40L captured on neutravidin; OD450nm
Method: as §1, §2

[13] = target: T2, human Receptor Activator for Nuclear …; experiment: as above
Method: as §1, §2

[14] = target: T6, human tumor necrosis factor-related …; experiment: as above
Method: as §1, §2

[15] = target: T7, hTNF-alpha; experiment: as above
Method: as §1, §2

[16] = target: T3, hCD40L; experiment: as above
Method: as §1, §2

Binder	binding result [1]	binding result [2]	binding result [3]	binding result [4]	binding result [5]	IC50 [6] [pM]	IC50 [7] [pM]	IC50 [8] [pM]	IC50, T cell assay with rec. hOX40L [9] [pM]	IC50 [10] [pM]	IC50, T cell assay with rec. hOX40L [11] [pM]	binding result [12]	binding result [13]	binding result [14]	binding result [15]	binding result [16]
OX40L01B11 (VHH, monovalent Nanobody from E. coli; not shown: C-terminal c-myc and His6 tag) VHH: EVQLVESGGGLVQAGGSLRLSCVASGRSFSTYIMGWFRQAPGKEREFVATISRSGITTRSADSVKGRFTISRDNAKNTVYLQMNSLKPEDTAVYYCAAGPYVEQTLGLYQTLGPWDYWGQGTQVTVSS	no binding (tested: starting from 100 fold molar excess)	no binding (tested: starting from 100 fold molar excess)	no binding (tested: starting from 100 fold molar excess)	no binding (tested: starting from 100 fold molar excess)	no binding (tested: starting from 100 fold molar excess)	540	–	–	–	–	–	–	–	–	–	–
OX40L15B07 (VHH, monovalent Nanobody from E. coli; not shown: C-terminal c-myc and His6 tag) VHH: EVQLVESGGGLVQAGGSLRLSCAASRSIGRLDRMGWYRHRTGEPRELVATITGGSSINYGDFVKGRFTISIDNAKNTVYLQMNNLKPEDTAVYYCNFNKYVTSRDTWGQGTQVTVSS	no binding (tested: starting from 100 fold molar excess)	no binding (tested: starting from 100 fold molar excess)	no binding (tested: starting from 100 fold molar excess)	no binding (tested: starting from 100 fold molar excess)	no binding (tested: starting from 100 fold molar excess)	–	103	66	10000	77	–	–	–	–	–	–
OX40L01E07 (VHH, monovalent Nanobody from E. coli; not shown: C-terminal c-myc and His6 tag) VHH: EVQLVESGGGLVQAGGSLRLSCAASGRTFSSIYAKGWFRQAPGKEREFVAAISRSGRSTSYADSVKGRFTISRDNAKNTVYLQMNSLKPEDTAVYYCAAVGGATTVTASEWDYWGLGTQVTVSS	–	–	–	–	–	100	–	–	–	–	1480	no binding	no binding	no binding	no binding	no binding

— patent US20150218281A1 (Ablynx, published 2015)
